Relative activity of maturated deamidase (% initial rate), Leakage activity and NanoDSF thermal unfolding temperature data for two molecules are collected here from patent publication US20250215412A1 (NOVOZYMES A S, published 2025).

Positions count from the first letter of the chain named. Numbers in names are those of the source.

Holding throughout (assay): cell-based or functional assay
Assay [1] concerns the target T1, Chryseobacterium sp-62563 deamidase Q126F (Chryseobacterium sp-62563).
T1 sequence: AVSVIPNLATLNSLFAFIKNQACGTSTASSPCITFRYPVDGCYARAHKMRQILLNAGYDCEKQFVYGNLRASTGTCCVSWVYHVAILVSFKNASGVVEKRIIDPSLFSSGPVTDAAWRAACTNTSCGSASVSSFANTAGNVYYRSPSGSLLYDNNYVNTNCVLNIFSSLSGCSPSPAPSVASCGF

Assay [2] deals with T2, Chryseobacterium sp-62563 deamidase Q130E (Chryseobacterium sp-62563).
T2 sequence: T1 sequence with F17Q, Q21E

The target of assay [3] is T3, Chryseobacterium sp-62563 deamidase Q160E (Chryseobacterium sp-62563).
T3 sequence: T1 sequence with F17Q, Q51E

Assay [4] addresses T4, Chryseobacterium sp-62563 deamidase Q130L (Chryseobacterium sp-62563).
T4 sequence: T1 sequence with F17Q, Q21L

Assay [5] concerns the target T5, Chryseobacterium sp-62563 deamidase Q172V (Chryseobacterium sp-62563).
T5 sequence: T1 sequence with F17Q, Q63V

The target of assay [6] is T6, Chryseobacterium sp-62563 deamidase Q160W (Chryseobacterium sp-62563).
T6 sequence: T1 sequence with F17Q, Q51W

The target of assay [7] is T7, Chryseobacterium sp-62563 deamidase C230H (Chryseobacterium sp-62563).
T7 sequence: T1 sequence with F17Q, C121H

Assay [8] concerns the target T8, Chryseobacterium sp-62563 deamidase Q126N (Chryseobacterium sp-62563).
T8 sequence: T1 sequence with F17N

Assay [9] has as its target Chryseobacterium sp-62563 deamidase D262* (Chryseobacterium sp-62563).
Assay [10] addresses Chryseobacterium sp-62563 deamidase A131* (Chryseobacterium sp-62563).
In assay [11] the target is Chryseobacterium sp-62563 deamidase V148* (Chryseobacterium sp-62563).
Assay [12] has as its target T9, Chryseobacterium sp-62563 deamidase C230S (Chryseobacterium sp-62563).
T9 chain: T1 sequence with F17Q, C121S

Assay [13] deals with T10, Chryseobacterium sp-62563 deamidase C169S (Chryseobacterium sp-62563).
T10 chain: T1 sequence with F17Q, C60S

Assay [14] addresses T11, Chryseobacterium sp-62563 deamidase V111A (Chryseobacterium sp-62563).
T11 chain: T1 sequence with V2A, F17Q

B1: Chryseobacterium sp-62563 propeptide F99A (protein)
chain: NQDPNLVAKESNETAMKDFGKTVPVGIEKEDGKFKISFMVTAQPYEIKDSKENAAYISMIKTAVENETPIHVFLKANTNEIAKVDKATDDDIRYFKSVATKEVKEENRK
As to B1, the Relative activity of maturated deamidase (% initial rate) is 52 in assay [1]; 44 in assay [2]; > 100 in assay [3]; > 100 in [4]; 66 in assay [5]; > 100 in [6]. Moreover, the Relative activity of maturated deamidase (% initial rate) in [8] is > 100. In addition, the results for the Leakage activity in assay [6] and in assay [7] were 2% and 0%, respectively.

B2: Chryseobacterium sp-62563 propeptide (first polypeptide, propeptide domain), wildtype (other)
chain: B1 chain with A99F
Take B2: the NanoDSF thermal unfolding temperature in assay [9] is 77.7 ° C; in [10] it was 79.1 ° C; in assay [11] it was 69.2 ° C. Further, the Leakage activity in assay [12] amounted to 13%; in assay [13], 0%; in assay [14], 0%.
